T1: human FAP (fibroblast activation protein) (human, UniProt Q12884 26-760, limits assumed)
T1 construct: Protein immobilised on the CM5 chip or premixed with Fab in SPR; also called huFAP; hFAP
T1 sequence: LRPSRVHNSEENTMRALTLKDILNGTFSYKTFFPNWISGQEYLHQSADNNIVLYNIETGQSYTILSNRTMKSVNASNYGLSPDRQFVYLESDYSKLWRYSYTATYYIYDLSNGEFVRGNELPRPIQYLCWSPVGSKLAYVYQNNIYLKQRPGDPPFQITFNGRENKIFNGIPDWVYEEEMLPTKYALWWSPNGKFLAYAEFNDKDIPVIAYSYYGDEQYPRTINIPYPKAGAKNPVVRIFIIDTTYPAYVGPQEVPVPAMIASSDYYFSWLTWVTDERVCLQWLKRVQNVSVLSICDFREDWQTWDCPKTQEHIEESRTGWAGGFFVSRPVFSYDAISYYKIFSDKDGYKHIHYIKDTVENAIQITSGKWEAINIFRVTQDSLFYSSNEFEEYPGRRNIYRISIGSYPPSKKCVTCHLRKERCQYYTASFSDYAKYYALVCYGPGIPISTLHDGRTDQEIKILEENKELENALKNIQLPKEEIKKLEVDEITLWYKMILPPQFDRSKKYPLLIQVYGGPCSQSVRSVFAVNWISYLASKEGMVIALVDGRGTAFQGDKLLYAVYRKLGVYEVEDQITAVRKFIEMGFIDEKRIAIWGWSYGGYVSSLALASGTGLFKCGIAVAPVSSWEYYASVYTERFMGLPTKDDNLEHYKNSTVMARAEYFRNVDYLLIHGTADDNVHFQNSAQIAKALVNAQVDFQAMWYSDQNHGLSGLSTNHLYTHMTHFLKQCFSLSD

T2: mouse FAP (mouse, UniProt P97321 26-761, limits assumed)
T2 construct: Protein immobilised on the CM5 chip in SPR
T2 sequence (looked up): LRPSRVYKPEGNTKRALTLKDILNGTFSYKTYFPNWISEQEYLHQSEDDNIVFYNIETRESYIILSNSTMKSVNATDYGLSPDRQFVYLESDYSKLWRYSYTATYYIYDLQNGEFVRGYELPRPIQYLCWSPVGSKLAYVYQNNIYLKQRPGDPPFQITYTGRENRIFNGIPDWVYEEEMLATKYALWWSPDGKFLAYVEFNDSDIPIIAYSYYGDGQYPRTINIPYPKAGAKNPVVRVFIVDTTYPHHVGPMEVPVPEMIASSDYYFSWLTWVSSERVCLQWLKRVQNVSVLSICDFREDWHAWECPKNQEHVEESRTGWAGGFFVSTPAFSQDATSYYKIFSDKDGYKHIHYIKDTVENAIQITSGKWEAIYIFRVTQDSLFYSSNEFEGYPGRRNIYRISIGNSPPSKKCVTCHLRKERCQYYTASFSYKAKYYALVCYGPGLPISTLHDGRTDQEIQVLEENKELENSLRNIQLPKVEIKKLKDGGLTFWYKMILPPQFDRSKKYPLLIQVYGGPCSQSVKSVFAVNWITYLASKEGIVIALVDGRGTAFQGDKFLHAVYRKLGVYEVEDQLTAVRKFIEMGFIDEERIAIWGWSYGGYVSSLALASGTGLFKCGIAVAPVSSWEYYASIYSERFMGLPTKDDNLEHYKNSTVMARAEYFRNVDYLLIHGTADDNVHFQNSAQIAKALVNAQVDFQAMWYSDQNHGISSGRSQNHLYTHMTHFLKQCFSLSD

B1: A07 Fab (Fab, V domains shown)
VH: QVQLVQSGAEVKKPGSSVKVSCKASGGTFSSYAISWVRQAPGQGLEWMGGIIPIFGTANYAQKFQGRVTITADESTSTAYMELSSLRSEDTAVYYCASPRDCSSTSCYAGIDAFDIWGQGTMVTVSS
VL: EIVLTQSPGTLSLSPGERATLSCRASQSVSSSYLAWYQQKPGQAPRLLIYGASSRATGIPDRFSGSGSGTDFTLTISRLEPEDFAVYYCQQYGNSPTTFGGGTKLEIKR
B2: E07 IgG (antibody, V domains shown)
VH: EVQLLESGGGLVQPGGSLRLSCAASGFTFKSYVMSWVRQAPGKGLEWVSAIVPSGGDTYYADSVKGRFTISRDNSKNTLYLQMNSLRAEDTAVYYCAKDYYGGWFDPWGQGTLVTVSS
VL: not shown

How the values were obtained:
[1] = target: T1, human FAP (fibroblast activation …); assay: SPR (Biacore), human FAP immobilised on CM5 chip by amine coupling, Fab as analyte, 2-fold dilution series from 500 nM
Experimental: (§1) 2.5 μg/mL human FAP was immobilized to flow cells 1-4 on CM5 chip by amine coupling. […] 5 μg/mL mouse FAP was immobilized to flow cells 5-8 on CM5 chip by amine coupling. […] Regeneration was done with 2.5 mM NaOH, 1M NaCl.

mouse FAP = target: T2, mouse FAP; assay: SPR (Biacore), mouse FAP immobilised on CM5 chip by amine coupling, Fab as analyte, 2-fold dilution series from 500 nM
Experimental: as §1

human DPP4 = target: T3, human DPP4 (human, UniProt P27487 1-766); assay: IgG staining of HEK cells transiently expressing the construct
T3 construct: whole, on cells; Transiently expressed in HEK cells; also called hDPP4; dipeptidyl peptidase IV
T3 sequence (P27487 whole entry): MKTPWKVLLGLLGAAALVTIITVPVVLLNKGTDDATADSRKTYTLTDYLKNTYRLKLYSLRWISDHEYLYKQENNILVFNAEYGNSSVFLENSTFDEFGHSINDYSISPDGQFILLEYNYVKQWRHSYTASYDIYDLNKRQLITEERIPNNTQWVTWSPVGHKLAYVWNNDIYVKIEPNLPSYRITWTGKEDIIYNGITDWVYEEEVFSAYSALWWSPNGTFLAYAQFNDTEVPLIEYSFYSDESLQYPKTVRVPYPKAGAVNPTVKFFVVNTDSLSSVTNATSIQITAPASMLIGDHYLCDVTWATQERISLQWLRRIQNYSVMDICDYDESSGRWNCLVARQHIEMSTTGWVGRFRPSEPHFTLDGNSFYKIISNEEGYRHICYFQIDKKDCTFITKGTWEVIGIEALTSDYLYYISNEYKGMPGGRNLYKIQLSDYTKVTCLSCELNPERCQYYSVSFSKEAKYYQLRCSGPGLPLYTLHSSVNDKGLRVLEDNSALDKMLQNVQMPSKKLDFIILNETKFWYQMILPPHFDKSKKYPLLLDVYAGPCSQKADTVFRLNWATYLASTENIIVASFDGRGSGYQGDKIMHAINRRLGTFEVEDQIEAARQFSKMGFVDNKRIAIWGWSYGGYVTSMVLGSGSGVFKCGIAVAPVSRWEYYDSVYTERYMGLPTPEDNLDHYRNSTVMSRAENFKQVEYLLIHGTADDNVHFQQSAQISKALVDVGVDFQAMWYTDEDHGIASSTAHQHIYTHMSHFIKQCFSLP
From the text: The constructs were designed on the DPP4 backbone and different FAP fragments were introduced to replace the corresponding DPP4 fragment as shown in FIG. 13D. BFP was used as a marker of transfection and His-tag to confirm expression.
The constructs were transiently expressed in HEK cells and the different IgGs were used to stain the cells.

Binder	Kd [1] [nM]	Kd (mouse FAP) [nM]	binding result (human DPP4)
B1	757	330	–
B2	–	–	no binding
